The nature of the data set: soluble on expression in E. coli; label from the status in PepcDB or PDB records.
For “MGSDKIHHHHHHMRIVVSGGGTGGHIYPALAMIREIERRTPCEVLYIGTENGLEADIVRRAGIPFESIEISGIRRSLSFENVKTGFRFLKSVVRVRKLLRDFQPDIVVGTGGFVCGPVLYTAAKMGYKTLVHEQNSLPGITNKFLARYVDRVALSFKGSGHHFGKNKGKTILIGNPRASEVAMLQIDPVEEKRKYGFEQDRPLIVVYGGSRGAPAINKAVVDMIPKLTETDWSLLFVTGQVHYEDIQAQLGTLPDRIQLRPFIYDLPLILKASQLVISRSGASTLAELTTLGLPSILIPSPYVTENHQEVNASSLVETGASLLIRESELTGDRLFDACTKAIADQADMSKASLALGMPNAASDLVDELLRLIQRKN”, the “soluble on expression in E. coli” value is “not soluble”.
Regarding “GSKGNIRVIARVRPVTKEDGEGPEATNAVTFDADDDSIIHLLHKGKPVSFELDKVFSPQASQQDVFQEVQALVTSCIDGFNVCIFAYGQTGAGKTYTMEGTAENPGINQRALQLLFSEVQEKASDWEYTITVSAAEIYNEVLRDLLGKEPQEKLEIRLCPDGSGQLYVPGLTEFQVQSVDDINKVFEFGHTNRTTEFTNLNEHSSRSHALLIVTVRGVDCSTGLRTTGKLNLVDLAGSERVGKSGAEGSRLREAQHINKSLSALGDVIAALRSRQGHVPFRNSKLTYLLQDSLSGDSKTLMVVQVSPVEKNTSETLYSLKFAERVRSVEL”, the “soluble on expression in E. coli” value is “soluble”.
For “SHMAGHQIVHVRGDSETDLEALFNAVMNPKTANVPQTVPMRLRKLPDSFFKPPEPKSHSRQASTDAGTAGALTPQHVRAHSSPASLQLGAVSPGTLTPTGVVSGPAATPTAQHLRQSSFEIPDDV” the value was “soluble”; for “MPGGVSSPVRAFKSVGGQPIVFDHVKGAHIWDVDGNQYIDYVGSWGPAIVGHAHPEVIDALHAALEKGTSFGAPCLLENILAEMVIAAVPSVEMVRFVNSGTEACMAVLRLMRAYTQREKVIKFEGCYHGHADMFLVKAGSGVATLGLPDSPGVPKATTAATLTAPYNDLEAVSRLFEQYPNDIAGVILEPVVGNAGFIPPDAGFLEGLRELTKQYGALLVFDEVMTGFRIAYGGAQEKFGVTPDLTTLGKVIGGGLPVGAYGGRAEIMKMVAPAGPVYQAGTLSGNPLAMTAGIKTLEILSRPGSYEHLDRITGKLVQGLLDAAREFGHEVCGGHISGMFGLFFTAGPVTNYEQAKQSDLKKFAAFHRGMLEQGIYLAPSQFEAGFTSLAHTEADIERTIAAARTVLSQL”, “soluble”; for “MSLKTLLFDVDDTLLDFKLAEKKALHALFEEENVPFTSEVESTYHRINQGLWRSFEEGKITKDVLLDTRFGLLFDAFNREVDSVKMGENYREYLSQGHDLLGNSQRILEKLAPHYDLYIVTNGVAKTQYRRLEDSKLMPYFKDIFVSEEVGYQKPMKEYFDFVFERIPNFSREKTMIIGDSLHSDIQGGQQAKIQTVWLNPTSAPATPTIQPNYTIQQLDELLPILGHEGHHHHHH”, “soluble”.
Under “MGSDKIHHHHHHMSSKAEKDIKWGIAPIGWRNDDIPSIGKDNNLQQLLSDIVVAGFQGTEVGGFFPGPEKLNYELKLRNLEIAGQWFSSYIIRDGIEKASEAFEKHCQYLKAINAPVAVVSEQTYTIQRSDTANIFKDKPYFTDKEWDEVCKGLNHYGEIAAKYGLKVAYHHHMGTGIQTKEETDRLMANTDPKLVGLLYDTGHIAVSDGDYMALLNAHIDRVVHVHFKDVRRSKEEECRAKGLTFQGSFLNGMFTVPGDGDLDFKPVYDKLIANNYKGWIVVEAEQDPSKANPLEMAQIAHRYIKQHLIEN” stands “not soluble”; under “MSVSLLRGRTVRRVLSVLVVAGLLGAGATGCSNDAGAKTENTVDASPTPTNTPTDGEGDSEGAEEPVEDTPAEPEQRPVPEEPEAMKTGDKAGAIAAATFFVEVIEYDATQPDSRFFSKYAYEECGWCNEYKKTHEQQANSNFSLINTNINLEDIKTASFAGEGSVLWSVPINANVSSHYKSKKDDEVVETEHTLTGNMLVGYRNGQWLLVEGDLLVK”, “not soluble”; under “MADLFPADFEPVFINIGDLELYNQDLDDEGTPTEAWTTFREEVKQVDGVMFVTPEYNRSVPAVLKNALDVGSRPYGESVWDKKPGLVVSVSPGAISGFGANHHLRQSLVFLNVPTLQQPEAYIGGITNLIGEDGKIIDGTVGFLQSIVDAYVDFFNRLTA”, “not soluble”.
For “MGSDKIHHHHHHMNMAHDEQRWLSPRLQKAAALCNQAPAASESPLWLGIDLGTCDVVSMVVDRDGQPVAVCLDWADVVRDGIVWDFFGAVTLVRRHLATLEQQLGCRFTHAATSFPPGTDPRISINVLESAGLEISHVLDEPTAVADLLQLDNAGVVDIGGGTTGIAIVKQGRVTYSADEATGGHHISLTLAGNRGIGLEEAEQYKRSHAGEIWPVVKPVYEKMAEIVARHIAGQGIVDLWLAGGACMQPGVHELFRQRFPALPVHLPQHSLFMTPLAIANSGREKAEGMYAS”, the “soluble on expression in E. coli” value is listed as “not soluble”.
Under “SHLVVESFPSYRDVTLFEGKRVSFYKRAQILVADTWSVLEGKGDGCFKDISSITMFADYRLPQVLAHLGALKYSDDLLKKLLKGEMLSYGDRQEVEIRGCSLWCVELIRDCLLELIEQKGEKPNGEINSILLDYYLWDYAHDHREDMKGIPFHRIRCIYY” stands “soluble”; under “MSLREYIKEGIKLAVTNIPEDVVSAIREALEREESKIAKYNLEMILKAIDISRKEGIPVCQDTGTPIFFVRTNGPINKIYDEIVKGVEIATREVPLRPNALHVLDGKVIGNVPEVHFEPGKETLISILMKGGGSENCTALFPLTPAEGLEGVKNKVIEHVQSCGGKPCPPIIVGIGIASPAEKAIILAKKALLRRISERHPNEKLAKFERELLEEINSLGIGPMGLGGRTTALDVKVEVETRHPASYIVGVVIQCWAHRRAFIKVSEGGVKIWQEGGSHHHHHH”, “soluble”; under “MVCFASLFEEVSMHTCPLCHNQHTRHYFEDKHREYLQCEQCYLVFVNPDQRLDAETEKAHYDLHENNPEDIGYRRFLSRIADPITERISPQSNGIDFGCGPGPTLSLMLEEAGHNMALYDIYYHPDTAVLEKQYDFMTATEVIEHLYHPDVVWKQWLNLVKPGGWIGLMTKMVIDVEAFKSWHYKNDPTHVVFFSRDTFQFLAERDKLELEFIGNDVILLRKTQLEHHHHHH”, “soluble”.
For “MHRALNQDDDHNQDGQDLLEAVLARDNLARAWRRVKSNRGAPGIDGVTTAEWPEHARAHWPATREQIEAGRYRPQPVRRVDIPKPDGGQRQLGIPTVTDRVIQQAIAQVLIPIFDPGFSASSFGFRPGRNAHQAIRQVQAHVKAGYRWAVDLDLARFFDNVNHDLLMSLLSRSIADKRLLALIGRYLRAGVLVGEHPQPSEVGTPQGGPLSPLLANVLLHQFDLELERRGHRFARYADDVIILVKSRRAAERVMQSLTYFLQSTLKLTVNLAKSQVAPMSECSFLGFTLVGKKIRWTEKSLANFKHRVRQLTGRSWGVSMEYRLEKLGQYLRGWFGYYGISQYYRPIPELDEWIRRRVRMCYWKQWRWARTKIRHLLDLGIPLKAAIQHGVSSLSYWRMARTPVTQQAMSNDWLRAQGLLSIKDLWCKAQSYGPDKGLEHHHHHH”, the “soluble on expression in E. coli” value was “not soluble”.
Under “MSKILDVQGIVKRATELNDFGHLLEHVPYAKFIGMKVERFGDELIFKLPAKDDNIGNPILPAIHGGVIAGFMEMSAIVQLMVFMQTAKVPKVVDFSIDYLRAGLHKDSFAECRITRQGRRVANVSINCWQTNRKQLIATARAHFLIDLEHHHHHH” stands “not soluble”; under “MPAALLISGPCKICDLPAHGNHFGVLSCRACAAFFRRASRSPRFQDKACEYGDCRIFDAGAYRCKICRLKKCYKVGMDASKFQKDRDLISSSNAYLKRTKVYAPQSLANFLGRPEFIISFEPEKASPFKTVIDVTDLVHKAAEIFQEVKVIFWHKPTLHGPIDVFFASNFAVL”, “soluble”.
For “SPVSKCPKKSESLWKGWDRKAQRNGLRSQVYAVNGDYYVGEWEDNVKHGKGTQVWKKKGAIYEGDWKFGKRDGYGTLSLPDQQTGKCRRVYSGWWKGDKKSGYGIQFFGPKEYYEGDWCGSQRSGWGRMYYSNGDIYEGQWENDKPNGEGMLRLKNGNRYEGCWERGMKNGAGRFFHLDHGQLFEGFWVDNMAKCGTMIDFGRDEAPEPTQFPIPEVKILDPDGVLAEALAMFRKTEEGD” the value was “soluble”.
